According to the supplement of paper PMC12764529:
± gives the half width of the 95% confidence interval.

Tests used:
[1] = folding stability dG unfold from trypsin proteolysis; higher = more stable
Method in brief: (§1)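 Bayesian fitting of sequencing counts gave K50 for each design. Unfolding free energy followed by setting this against a sequence-predicted unfolded-state K50 and a shared folded-state K50, either per protease or with trypsin and chymotrypsin combined. The designs, under 80 residues and lacking cysteine, were digested in a PA-tagged cDNA display format at 11 threefold-diluted protease concentrations and without protease, and only those with AlphaFold2 dimer inter-PAE above 15 were kept.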

[2] = folding stability dG unfold from chymotrypsin proteolysis; higher = more stable
Method in brief: as §1

[3] = folding stability dG unfold (combined trypsin and chymotrypsin); higher = more stable
Method in brief: as §1

With “SAGGMMIVIRIPNKPVEFEINGWKIEYNPDEGTIIIPFPPEMLDQLEKLPGLEGIKDIEIIPPGELKSAGGS [r8_493_TrROS]” the “folding stability dG unfold” value [1] was 1.22 ± 0.029 kcal/mol, the “folding stability dG unfold” value [2] was 2.56 ± 0.051 kcal/mol and the “folding stability dG unfold” value [3] was 2.12 ± 0.14 kcal/mol.
For “SAGGMMKIKITIINENGETLTIEIEVPEEDLEEAIKALEDELKKKGYEIESIERVNGKITITVRIKPSAGGS [r16_662_TrROS_Hall]”, the “folding stability dG unfold” value [1] was 4.03 ± 0.16 kcal/mol, the “folding stability dG unfold” value [2] was 4.06 ± 0.06 kcal/mol and the “folding stability dG unfold” value [3] was 4.12 ± 0.12 kcal/mol.
For “SAGGMMKYVVRIKIYNENGEEVKEIEIEIEMSEEEVEELARKLAEKLAEELGVEVKIVEVEIEKLEPSAGGS [r16_140_TrROS_Hall]”, the “folding stability dG unfold” value [1] was 4.4 ± 0.37 kcal/mol, the “folding stability dG unfold” value [2] was 4.28 ± 0.2 kcal/mol and the “folding stability dG unfold” value [3] was 4.39 ± 0.25 kcal/mol.
For “SAGGMNIVTYTLTIPPGRIEEVKEAIEALGIPVVKVELVEVLPGEGLAIVKIEVPNNVDPEKVKKALSSAGG [r13_725_JUSTAS]”, the “folding stability dG unfold” value [1] was 3.97 ± 0.19 kcal/mol, the “folding stability dG unfold” value [2] was 4.13 ± 0.14 kcal/mol and the “folding stability dG unfold” value [3] was 4.09 ± 0.12 kcal/mol.
In the case of “SAGGMPEVKYLEITITVEVPTEEEALEKLKEELKKLFPNAEIVSVEVEVEEEDGKLTVTVKITVKLPSAGGS [r8_120_TrROS_Hall]”, the “folding stability dG unfold” value [1] is reported as 3.66 ± 0.22 kcal/mol, the “folding stability dG unfold” value [2] is reported as 2.48 ± 0.11 kcal/mol and the “folding stability dG unfold” value [3] is reported as 3.35 ± 0.16 kcal/mol.
In the case of “SAGGMPIKELTAEEIAALLKEKLGVDVEIEEVKVTVERDENGNYVLRIEVKFKETNETITLEIVLPKSAGGS [r16_42_TrROS_Hall]”, the “folding stability dG unfold” value [1] is reported as 2.94 ± 0.093 kcal/mol, the “folding stability dG unfold” value [2] is reported as 4.2 ± 0.16 kcal/mol and the “folding stability dG unfold” value [3] is reported as 3.86 ± 0.14 kcal/mol.
In the case of “SAGGMPIYARIVLYPPETGKFSELEIEFPEFESPDEVVEAAKEIAEKLGGPIARIEIYDPKTGKPFPDSAGG [r13_771_TrMRF]”, the “folding stability dG unfold” value [1] is reported as 0.592 ± 0.094 kcal/mol, the “folding stability dG unfold” value [2] is reported as 0.281 ± 0.083 kcal/mol and the “folding stability dG unfold” value [3] is reported as 0.314 ± 0.27 kcal/mol.
For “SAGGMPKLTVTITFEPPDGSTTTTRDFTSVEEAIEALRAVPDIPVEPLEDDVIRARRPDSETTVTIVESAGG [r13_143_JUSTAS]”, the “folding stability dG unfold” value [1] was 0.192 ± 0.07 kcal/mol, the “folding stability dG unfold” value [2] was -0.796 ± 0.24 kcal/mol and the “folding stability dG unfold” value [3] was -0.171 ± 0.11 kcal/mol.
With “SAGGMPKYFAEVDTEPHGDKVKITLRIRDPNGVERELTFELPLSEVIKLLKELPEEFEVFELKFSDESAGGS [r16_298_TrMRF]” the “folding stability dG unfold” value [1] was 2.05 ± 0.042 kcal/mol, the “folding stability dG unfold” value [2] was 3.12 ± 0.034 kcal/mol and the “folding stability dG unfold” value [3] was 2.71 ± 0.14 kcal/mol.
With “SAGGMPLEDMSLEELKARLEEALEELRAKLPPGEKKTLTLTVTLTVVDKETGETRTVTLTVTLTLPAPSAGG [r13_385_TrROS_Hall]” the “folding stability dG unfold” value [1] was 3.43 ± 0.064 kcal/mol, the “folding stability dG unfold” value [2] was 4.38 ± 0.052 kcal/mol and the “folding stability dG unfold” value [3] was 4.16 ± 0.076 kcal/mol.
In the case of “SAGGMPPEELEAASLEERIARVRAAGLETATVRRPDGSTLTIDLGEEGPVTITTTTPPGETTTATLPSAGGS [r8_51_JUSTAS]”, the “folding stability dG unfold” value [1] is reported as -1.04 ± 0.55 kcal/mol, the “folding stability dG unfold” value [2] is reported as 0.975 ± 0.042 kcal/mol and the “folding stability dG unfold” value [3] is reported as 0.654 ± 0.08 kcal/mol.
In the case of “SAGGMPPGDPVKVNVQIRIRMRDPNGKKPELTVPIEYNVQSKEDARDAILKIAKELADEYGYEIEVFSAGGS [r8_149_TrROS]”, the “folding stability dG unfold” value [1] is reported as 0.711 ± 0.041 kcal/mol, the “folding stability dG unfold” value [2] is reported as 1.52 ± 0.12 kcal/mol and the “folding stability dG unfold” value [3] is reported as 1.31 ± 0.24 kcal/mol.
With “SAGGMPPGSFRVRARRPVPLFVRVRLPNDPDVTVTFPVTVPAELELPVNSPEALEALREAGFEIEPASAGGS [r8_482_TrMRF]” the “folding stability dG unfold” value [1] was 0.608 ± 0.14 kcal/mol, the “folding stability dG unfold” value [2] was 0.114 ± 0.33 kcal/mol and the “folding stability dG unfold” value [3] was 0.357 ± 0.18 kcal/mol.
For “SAGGMPVPVLIVVPEDKIEEIIKKIREETDEDVEIKAFKLPDGRVLLLITFNDPQLAEDFLKKFGFGSAGGS [r16_172_TrMRF]”, the “folding stability dG unfold” value [1] was 4.27 ± 0.23 kcal/mol, the “folding stability dG unfold” value [2] was 5.17 ± 0.14 kcal/mol and the “folding stability dG unfold” value [3] was 5.13 ± 0.17 kcal/mol.
With “SAGGMPVRVLITYESGEIPVTIPVDPNKVVEAEVELEDKTVKITVDPKAKTIKVDAPPSFKFEVLDPSAGGS [r16_761_JUSTAS]” the “folding stability dG unfold” value [1] was 0.35 ± 0.13 kcal/mol, the “folding stability dG unfold” value [2] was 0.257 ± 0.084 kcal/mol and the “folding stability dG unfold” value [3] was 0.277 ± 0.18 kcal/mol.
For “SAGGMPVTVTIVVPPGTERELAEELAEKYAKEGADVEFEERPGGLVLTMTLPGGEVVTMEIRDPAQASAGGS [r16_406_JUSTAS]”, the “folding stability dG unfold” value [1] was 2.3 ± 0.056 kcal/mol, the “folding stability dG unfold” value [2] was 2.382 ± 0.023 kcal/mol and the “folding stability dG unfold” value [3] was 2.34 ± 0.057 kcal/mol.
For “SAGGMPYRLDAVRVEVRPRPDGGPLLVVELTYPDGSRETAVFDSPEDLLRALENSPRFSEITLLPSVSAGGS [r16_757_TrMRF]”, the “folding stability dG unfold” value [1] was 1.01 ± 0.017 kcal/mol, the “folding stability dG unfold” value [2] was 0.16 ± 0.088 kcal/mol and the “folding stability dG unfold” value [3] was 0.739 ± 0.046 kcal/mol.
For “SAGGMQALLRLPDTDEVVVLPDELLEAIASGDPERLAALPPEVREVISNVAELVVVPPPDGDPRPEGGSAGG [r13_233_TrMRF]”, the “folding stability dG unfold” value [1] was 0.419 ± 0.032 kcal/mol, the “folding stability dG unfold” value [2] was 0.496 ± 0.15 kcal/mol and the “folding stability dG unfold” value [3] was 0.614 ± 0.15 kcal/mol.
In the case of “SAGGMRIELVRTYIEEPDENGKLKGSGYREVLVLRPPPPVIRVPPELLEEAEELRKKLDGPVEPEELGSAGG [r19_315_JUSTAS]”, the “folding stability dG unfold” value [1] is reported as 3.63 ± 0.38 kcal/mol, the “folding stability dG unfold” value [2] is reported as 3.6 ± 0.18 kcal/mol and the “folding stability dG unfold” value [3] is reported as 3.84 ± 0.42 kcal/mol.
In the case of “SAGGMRLRIVVKSEEEARELAEALAKKLKEEFPGLKIEVKVVKVEYNEETDLIVVEVEIKVELEDEEPSAGG [r13_585_TrROS_Hall]”, the “folding stability dG unfold” value [1] is reported as 4.6 ± 0.33 kcal/mol, the “folding stability dG unfold” value [2] is reported as 4.42 ± 0.19 kcal/mol and the “folding stability dG unfold” value [3] is reported as 4.42 ± 0.35 kcal/mol.
With “SAGGMSFTMTVPPSNPNQVVGTNVPVSDVPPNYAYTLHFPNTGTTTTIPVSQAEEVKAQPHIDEITATSAGG [r19_302_JUSTAS]” the “folding stability dG unfold” value [1] was 0.688 ± 0.03 kcal/mol, the “folding stability dG unfold” value [2] was 0.0302 ± 0.085 kcal/mol and the “folding stability dG unfold” value [3] was 0.486 ± 0.04 kcal/mol.
For “SAGGMSLEHVTEIVETVTHPDGTKTVTIRLSDPAIWAGEDPATAAALAEAVQAEHADEGVAVTVVGAPSAGG [r13_243_JUSTAS]”, the “folding stability dG unfold” value [1] was -0.642 ± 0.26 kcal/mol, the “folding stability dG unfold” value [2] was 1.05 ± 0.042 kcal/mol and the “folding stability dG unfold” value [3] was 0.585 ± 0.15 kcal/mol.
With “SAGGMSPDQIWKAKLLSRKKGKNGSVYNIVIYNPDNPKPIFINKPGDNPEDVLKELEELVKKGPIDLESAGG [r13_286_TrMRF]” the “folding stability dG unfold” value [1] was 0.354 ± 0.22 kcal/mol, the “folding stability dG unfold” value [2] was 0.549 ± 0.21 kcal/mol and the “folding stability dG unfold” value [3] was 0.468 ± 0.18 kcal/mol.
For “SAGGMSVSFPVDSSEELKKLLPKDYLVEIVSTPPDGSKSVRVVRPEDLEIDLPEGEKYYFEIKFLPKESAGG [r13_461_TrMRF]”, the “folding stability dG unfold” value [1] was 0.442 ± 0.072 kcal/mol, the “folding stability dG unfold” value [2] was -0.138 ± 0.093 kcal/mol and the “folding stability dG unfold” value [3] was 0.203 ± 0.19 kcal/mol.
With “SAGGMSVTVSTHLSPEELRELVREIVEKNPGLEVKAVEVTDPATGEWRAVPLDEVPADRPVTVRVDLSRSAG [r5_357_JUSTAS]” the “folding stability dG unfold” value [1] was 0.506 ± 0.091 kcal/mol, the “folding stability dG unfold” value [2] was 0.388 ± 0.12 kcal/mol and the “folding stability dG unfold” value [3] was 0.495 ± 0.12 kcal/mol.
For “SAGGMTEVSVSEELRAEGGGLERVLVVTITTVTKVYPVGSSNKVEYEESTIVIPADDPAALEAAGVLLSAGG [r13_670_JUSTAS]”, the “folding stability dG unfold” value [1] was 0.563 ± 0.07 kcal/mol, the “folding stability dG unfold” value [2] was -0.319 ± 0.36 kcal/mol and the “folding stability dG unfold” value [3] was 0.257 ± 0.16 kcal/mol.
